From patent US20110300138A1 (published 2011)

B1: K1-70 IgG (antibody, V domains shown)
VH: EVQLVQSGAEVKKPGQSLKISCKASGYSLTDNWIGWVRQKPGKGLEWMGIIYPGDSDTRYSPSFQGQVTISADKSINTAYLQWSSLKASDTAIYYCVGLDWNYNPLRYWGPGTLVTVSS
VL: QSVLTQPPSVSAAPGQKVTISCSGSSSDIGSNYVSWYQQFPGTAPKLLIYDNNKRPSAIPDRFSGSKSGTSATLGITGLQTGDEADYYCGTWDSRLGIAVFGGGTQLTVLG
notes: Human IgG1 with lambda light chains, purified from hetero-hybridoma culture supernatant
B2: K1-70 IgG (antibody, V domains shown)
VH: B1 VH
VL: B1 VL
notes: Human IgG1 lambda purified from hetero-hybridoma supernatant; also called human monoclonal autoantibody K1-70
B3: K1-70 Fab (Fab, V domains shown)
VH: B1 VH
VL: B1 VL
notes: also called Fab of K1-70
B4: K1-18 IgG (antibody, V domains shown)
VH: EVQLVQSGAEVKKPGESLKISCKGSGYSFTNYWIGWVRQMPGKGLEWMGIIYPYDSDTRYSPSFEGQVTISADKSIRTAYLHWSSLKASDTAMYYCVRPRDGSYPYDAFDIWGQGTMVTVSS
VL: EIVLTQSPGTLSLSPGERATLSCRASQSVSNNYLAWYQQKPGQAPRLLIYGASSRATGIPDRFSGSGSGTDFTLTISRLEPEDFAVYYCQHCGSSLRAFGQGTKVEIKR
notes: Human IgG1 with kappa light chains, purified from hetero-hybridoma culture supernatant; also called human monoclonal autoantibody to the TSHR with TSH agonist (stimulating) activity
B5: K1-18 Fab (Fab, V domains shown)
VH: B4 VH
VL: B4 VL
B6: K1-18 IgG (antibody, V domains shown)
VH: B4 VH
VL: B4 VL
notes: Human IgG1 kappa purified from hetero-hybridoma supernatant; also called human monoclonal autoantibody K1-18

Columns and labels:
[1] = biological target: TSHR260-AP (fusion protein consisting of a fragment of human TSHR, amino acids 22-260, with alkaline phosphatase) (human); assay: bridging ELISA: full length TSHR on wells, TSHR260-AP in liquid phase; IgG 0.1 µg/mL in HBD serum
[2] = biological target: TSHR260-AP (fusion protein consisting of a fragment of human TSHR, amino acids 22-260, with alkaline phosphatase) (human); assay: bridging ELISA: full length TSHR on wells, TSHR260-AP in liquid phase; IgG 0.01 µg/mL in HBD serum
[3] = biological target: TSHR260-AP (fusion protein consisting of a fragment of human TSHR, amino acids 22-260, with alkaline phosphatase) (human); assay: bridging ELISA: full length TSHR on wells, TSHR260-AP in liquid phase; IgG 10 µg/mL in HBD serum
[4] = biological target: TSHR260-AP (fusion protein consisting of a fragment of human TSHR, amino acids 22-260, with alkaline phosphatase) (human); assay: bridging ELISA: full length TSHR on wells, TSHR260-AP in liquid phase; IgG 0.5 µg/mL in HBD serum
[5] = biological target: TSHR260-AP (fusion protein consisting of a fragment of human TSHR, amino acids 22-260, with alkaline phosphatase) (human); assay: bridging ELISA: full length TSHR on wells, TSHR260-AP in liquid phase; IgG 0.005 µg/mL in HBD serum
[6] = biological target: TSHR260-AP (fusion protein consisting of a fragment of human TSHR, amino acids 22-260, with alkaline phosphatase) (human); assay: bridging ELISA: full length TSHR on wells, TSHR260-AP in liquid phase; IgG 1 µg/mL in HBD serum
[7] = biological target: TSHR260-AP (fusion protein consisting of a fragment of human TSHR, amino acids 22-260, with alkaline phosphatase) (human); assay: bridging ELISA: full length TSHR on wells, TSHR260-AP in liquid phase; IgG 0.05 µg/mL in HBD serum
[8] = biological target: T1, human TSH receptor (full length), coated on ELISA plate wells (human, UniProt P16473 22-764); assay: ELISA, inhibition of M22 Fab-peroxidase (competitor) binding to TSHR coated wells; 0.03 µg/mL in HBD serum; mean ± SD
T1 construct: TSHR coated ELISA plate wells of the TRAb ELISA; also called thyroid stimulating hormone receptor

[9] = biological target: T1, human TSH receptor (full length), …; assay: ELISA, inhibition of M22 Fab-peroxidase (competitor) binding to TSHR coated wells; 0.1 µg/mL in HBD serum; mean ± SD
[10] = biological target: T1, human TSH receptor (full length), …; assay: ELISA, inhibition of M22 Fab-peroxidase (competitor) binding to TSHR coated wells; 1 µg/mL in assay buffer; mean ± SD
[11] = biological target: T1, human TSH receptor (full length), …; assay: ELISA, inhibition of M22 Fab-peroxidase (competitor) binding to TSHR coated wells; 0.01 µg/mL in HBD serum; mean ± SD
[12] = biological target: T1, human TSH receptor (full length), …; assay: ELISA, inhibition of M22 Fab-peroxidase (competitor) binding to TSHR coated wells; 0.1 µg/mL in assay buffer; mean ± SD
[13] = biological target: T1, human TSH receptor (full length), …; assay: ELISA, inhibition of M22 Fab-peroxidase (competitor) binding to TSHR coated wells; 1 µg/mL in HBD serum; mean ± SD
[14] = biological target: T1, human TSH receptor (full length), …; assay: ELISA, inhibition of M22 Fab-peroxidase (competitor) binding to TSHR coated wells; 0.01 µg/mL in assay buffer; mean ± SD
[15] = biological target: T1, human TSH receptor (full length), …; assay: ELISA, inhibition of M22 Fab-peroxidase (competitor) binding to TSHR coated wells; 0.03 µg/mL in assay buffer; mean ± SD
[16] = biological target: T2, thyroid stimulating hormone receptor (TSHR), full length human (human, UniProt P16473 22-764); assay: 125I-K1-18 Fab competition, TSHR coated tubes; 0.1 µg/mL in HBD
T2 construct: TSHR coated on plastic tubes; also called TSH receptor
Protocol: (§1) Binding inhibition assays were carried out using TSHR coated tubes as described in WO2004/050708A2. […] After aspiration, the tubes were washed and 100 μL of ¹²⁵I-labelled protein (5×10⁴ cpm) added and incubated for 1 hour at room temperature with shaking. The tubes were then aspirated, washed and counted in a gamma counter. Inhibition of labelled protein binding was calculated as 100×[1−(cpm bound in the presence of test material/cpm bound in the presence of control material)].

[17] = biological target: T2, thyroid stimulating hormone receptor …; assay: 125I-K1-18 Fab competition, TSHR coated tubes; 3 µg/mL in assay buffer
Protocol: as §1

[18] = biological target: T2, thyroid stimulating hormone receptor …; assay: 125I-K1-18 Fab competition, TSHR coated tubes; 30 µg/mL in HBD
Protocol: as §1

[19] = biological target: T2, thyroid stimulating hormone receptor …; assay: 125I-K1-18 Fab competition, TSHR coated tubes; 100 µg/mL in HBD
Protocol: as §1

[20] = biological target: T2, thyroid stimulating hormone receptor …; assay: 125I-K1-18 Fab competition, TSHR coated tubes; 1 µg/mL in HBD
Protocol: as §1

[21] = biological target: T2, thyroid stimulating hormone receptor …; assay: 125I-K1-18 Fab competition, TSHR coated tubes; 0.1 µg/mL in assay buffer
Protocol: as §1

[22] = biological target: T2, thyroid stimulating hormone receptor …; assay: 125I-K1-18 Fab competition, TSHR coated tubes; 100 µg/mL in assay buffer
Protocol: as §1

[23] = biological target: T2, thyroid stimulating hormone receptor …; assay: 125I-K1-18 Fab competition, TSHR coated tubes; 3 µg/mL in HBD
Protocol: as §1

[24] = biological target: T2, thyroid stimulating hormone receptor …; assay: 125I-K1-18 Fab competition, TSHR coated tubes; 30 µg/mL in assay buffer
Protocol: as §1

[25] = biological target: T2, thyroid stimulating hormone receptor …; assay: 125I-K1-18 Fab competition, TSHR coated tubes; 10 µg/mL in HBD
Protocol: as §1

[26] = biological target: T2, thyroid stimulating hormone receptor …; assay: 125I-K1-18 Fab competition, TSHR coated tubes; 1 µg/mL in assay buffer
Protocol: as §1

[27] = biological target: T2, thyroid stimulating hormone receptor …; assay: 125I-K1-18 Fab competition, TSHR coated tubes; 10 µg/mL in assay buffer
Protocol: as §1

Molecule	Inhibition of binding (%) [8] [%]	Inhibition of binding (%) [9] [%]	Inhibition of binding (%) [10] [%]	Inhibition of binding (%) [11] [%]	Inhibition of binding (%) [12] [%]	Inhibition of binding (%) [13] [%]	Inhibition of binding (%) [14] [%]	Inhibition of binding (%) [15] [%]	Inhibition of binding (%) [16] [%]	Inhibition of binding (%) [17] [%]	Inhibition of binding (%) [18] [%]	Inhibition of binding (%) [19] [%]	Inhibition of binding (%) [20] [%]	Inhibition of binding (%) [21] [%]	Inhibition of binding (%) [22] [%]	Inhibition of binding (%) [23] [%]	Inhibition of binding (%) [24] [%]	Inhibition of binding (%) [25] [%]	Inhibition of binding (%) [26] [%]	Inhibition of binding (%) [27] [%]	other results
9D33 IgG (mouse TSHR blocking MAb) (antibody)																					Mean absorbance at 405 nm (absorbance at 405 nm) [1]: 0.102; Mean absorbance at 405 nm (absorbance at 405 nm) [2]: 0.011; Mean absorbance at 405 nm (absorbance at 405 nm) [3]: 0.481; Mean absorbance at 405 nm (absorbance at 405 nm) [4]: 0.273; Mean absorbance at 405 nm (absorbance at 405 nm) [5]: 0.006; Mean absorbance at 405 nm (absorbance at 405 nm) [6]: 0.329; Mean absorbance at 405 nm (absorbance at 405 nm) [7]: 0.056
B1	34.5	69.7	98.1	9.2	93	96.4	28	71.8													
B2									60.1	94.5	95.5	95.6	94	73.8	94.8	95.3	95.1	95.8	94	94.6	
B3	58.8	86	97.2	27.9	94.6	96.1	57.5	82													
B4	13.6	56.3	96.3	-4	71.9	94.6	8.9	35.7													
B5									43.9	81.1	82.6	84.8	79.2	62.5	86.2	82.8	84.2	81.6	81.5	83.5	
B6									57	93.7	95.7	96	91.9	78.5	94.8	94	94.5	94.5	93.3	94.8	
